The supplement of paper PMC10065799, “High-throughput profiling of sequence recognition by tyrosine kinases and SH2 domains using bacterial peptide display” (eLife, 2023)

What was measured:
[1] = tested on: c-Src; assay: phosphorylation enrichment, bacterial display (enrichment ratio); higher = better substrate or ligand; peptides without Tyr show the background
[2] = molecular target: Jak2 (UniProt O60674); assay: as above
[3] = molecular target: Hck (UniProt P08631); assay: as above
[4] = tested on: Fer (mouse); assay: as above
[5] = molecular target: FGFR1 (UniProt P11362); assay: as above
[6] = molecular target: Fyn (UniProt P06241); assay: as above
[7] = molecular target: FGFR3 (UniProt P22607); assay: as above
[8] = tested on: AncSZ; assay: as above
[9] = molecular target: MERTK (UniProt Q12866); assay: as above
[10] = molecular target: Fes (UniProt P07332); assay: as above
[11] = molecular target: EPHB1 (UniProt P54762); assay: as above
[12] = molecular target: EPHB2 (UniProt P29323); assay: as above
[13] = tested on: c-Abl (mouse); assay: as above
[14] = molecular target: c-Src SH2; assay: SH2 binding enrichment of the phosphorylated peptide, bacterial display (enrichment ratio); higher = better substrate or ligand; peptides without Tyr show the background
[15] = molecular target: Grb2 SH2 (UniProt P62993); assay: as above
[16] = molecular target: SHP2-C SH2; assay: as above
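Throughout, for SH2 binding enrichment of the phosphorylated peptide, bacterial display: peptide library displayed on the E. coli surface as eCPX fusions, selected cells deep-sequenced, score is each peptide's frequency after selection divided by its frequency in the input.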
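Throughout, for phosphorylation enrichment, bacterial display: 11-residue human phosphosite peptides and single-mutation variants displayed on the E. coli surface, counted by deep sequencing, each peptide's frequency after selection divided by its frequency in the unselected input library; frequency after pTyr selection over input frequency; kinase dosed for 20-30% of maximal phosphorylation in three min.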

Chain of Fes (P07332 whole entry, looked up): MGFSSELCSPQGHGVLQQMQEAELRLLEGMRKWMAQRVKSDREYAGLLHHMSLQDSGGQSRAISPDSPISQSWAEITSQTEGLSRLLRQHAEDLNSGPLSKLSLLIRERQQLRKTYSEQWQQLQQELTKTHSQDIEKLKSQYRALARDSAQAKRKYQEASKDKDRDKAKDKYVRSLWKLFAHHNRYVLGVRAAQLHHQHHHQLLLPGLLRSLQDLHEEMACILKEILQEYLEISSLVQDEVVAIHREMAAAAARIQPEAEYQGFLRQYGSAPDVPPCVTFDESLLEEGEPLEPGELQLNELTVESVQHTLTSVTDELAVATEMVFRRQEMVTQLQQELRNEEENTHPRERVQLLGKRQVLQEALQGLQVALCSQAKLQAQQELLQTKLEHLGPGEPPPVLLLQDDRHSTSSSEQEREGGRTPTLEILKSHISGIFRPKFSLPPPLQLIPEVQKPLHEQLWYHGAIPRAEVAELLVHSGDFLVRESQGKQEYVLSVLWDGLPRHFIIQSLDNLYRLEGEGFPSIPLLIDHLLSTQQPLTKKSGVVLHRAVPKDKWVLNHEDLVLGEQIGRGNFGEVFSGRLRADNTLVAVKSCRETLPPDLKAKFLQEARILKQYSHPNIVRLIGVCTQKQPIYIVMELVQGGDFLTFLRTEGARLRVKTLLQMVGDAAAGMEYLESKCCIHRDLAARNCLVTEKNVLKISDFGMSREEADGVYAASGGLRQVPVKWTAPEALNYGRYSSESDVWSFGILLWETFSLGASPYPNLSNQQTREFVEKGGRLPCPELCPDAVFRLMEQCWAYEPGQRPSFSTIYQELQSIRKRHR
Chain of Jak2 (O60674 whole entry, looked up): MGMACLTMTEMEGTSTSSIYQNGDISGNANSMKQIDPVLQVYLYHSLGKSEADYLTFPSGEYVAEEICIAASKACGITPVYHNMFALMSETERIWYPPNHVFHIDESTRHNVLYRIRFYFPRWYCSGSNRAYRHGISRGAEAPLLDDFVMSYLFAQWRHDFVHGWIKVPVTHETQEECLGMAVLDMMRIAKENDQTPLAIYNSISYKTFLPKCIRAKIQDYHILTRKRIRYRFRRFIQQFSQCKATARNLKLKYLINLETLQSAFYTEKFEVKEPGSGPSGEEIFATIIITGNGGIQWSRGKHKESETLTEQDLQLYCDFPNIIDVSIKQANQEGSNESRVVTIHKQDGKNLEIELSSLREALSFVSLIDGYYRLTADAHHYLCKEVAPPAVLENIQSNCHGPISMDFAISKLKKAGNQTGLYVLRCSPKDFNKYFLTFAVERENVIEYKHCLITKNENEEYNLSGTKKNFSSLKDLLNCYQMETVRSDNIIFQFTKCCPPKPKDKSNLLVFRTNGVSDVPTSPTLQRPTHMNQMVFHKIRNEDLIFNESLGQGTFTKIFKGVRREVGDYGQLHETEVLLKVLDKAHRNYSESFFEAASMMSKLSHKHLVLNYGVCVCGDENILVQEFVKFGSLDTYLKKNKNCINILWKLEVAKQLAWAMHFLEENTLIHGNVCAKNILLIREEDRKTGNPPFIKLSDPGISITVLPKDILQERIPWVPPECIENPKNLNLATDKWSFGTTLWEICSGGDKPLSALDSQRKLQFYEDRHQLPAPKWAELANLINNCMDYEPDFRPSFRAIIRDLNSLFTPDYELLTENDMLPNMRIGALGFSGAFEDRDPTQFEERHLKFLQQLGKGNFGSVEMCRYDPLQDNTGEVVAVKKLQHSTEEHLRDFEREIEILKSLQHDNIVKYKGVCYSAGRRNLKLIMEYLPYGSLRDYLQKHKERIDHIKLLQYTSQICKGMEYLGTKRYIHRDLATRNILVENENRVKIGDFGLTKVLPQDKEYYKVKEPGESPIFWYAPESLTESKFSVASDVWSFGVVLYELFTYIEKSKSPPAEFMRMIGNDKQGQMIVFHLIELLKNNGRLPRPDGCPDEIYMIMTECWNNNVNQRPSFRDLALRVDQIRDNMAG
Chain of FGFR3 (P22607 whole entry, looked up): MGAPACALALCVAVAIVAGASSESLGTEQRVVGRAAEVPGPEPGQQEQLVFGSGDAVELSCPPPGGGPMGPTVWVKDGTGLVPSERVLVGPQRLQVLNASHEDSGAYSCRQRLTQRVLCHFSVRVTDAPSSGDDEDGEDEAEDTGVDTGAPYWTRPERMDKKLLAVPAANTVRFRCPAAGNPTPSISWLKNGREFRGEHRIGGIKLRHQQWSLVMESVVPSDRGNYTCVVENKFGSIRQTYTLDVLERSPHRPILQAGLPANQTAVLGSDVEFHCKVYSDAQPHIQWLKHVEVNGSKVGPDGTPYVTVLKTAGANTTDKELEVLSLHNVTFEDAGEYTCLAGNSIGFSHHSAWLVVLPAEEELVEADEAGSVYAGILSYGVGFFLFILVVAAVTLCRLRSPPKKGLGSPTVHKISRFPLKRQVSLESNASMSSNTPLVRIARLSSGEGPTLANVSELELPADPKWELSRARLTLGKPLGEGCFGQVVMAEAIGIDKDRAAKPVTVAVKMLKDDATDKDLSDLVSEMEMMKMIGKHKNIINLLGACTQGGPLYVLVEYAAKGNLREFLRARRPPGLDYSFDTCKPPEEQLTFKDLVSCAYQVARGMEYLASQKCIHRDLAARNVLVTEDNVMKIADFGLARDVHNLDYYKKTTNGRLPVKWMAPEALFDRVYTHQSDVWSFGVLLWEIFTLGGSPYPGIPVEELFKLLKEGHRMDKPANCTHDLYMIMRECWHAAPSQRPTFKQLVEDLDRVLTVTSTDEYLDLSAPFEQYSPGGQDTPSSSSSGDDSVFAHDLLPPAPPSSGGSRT
Chain of EPHB1 (P54762 whole entry, looked up): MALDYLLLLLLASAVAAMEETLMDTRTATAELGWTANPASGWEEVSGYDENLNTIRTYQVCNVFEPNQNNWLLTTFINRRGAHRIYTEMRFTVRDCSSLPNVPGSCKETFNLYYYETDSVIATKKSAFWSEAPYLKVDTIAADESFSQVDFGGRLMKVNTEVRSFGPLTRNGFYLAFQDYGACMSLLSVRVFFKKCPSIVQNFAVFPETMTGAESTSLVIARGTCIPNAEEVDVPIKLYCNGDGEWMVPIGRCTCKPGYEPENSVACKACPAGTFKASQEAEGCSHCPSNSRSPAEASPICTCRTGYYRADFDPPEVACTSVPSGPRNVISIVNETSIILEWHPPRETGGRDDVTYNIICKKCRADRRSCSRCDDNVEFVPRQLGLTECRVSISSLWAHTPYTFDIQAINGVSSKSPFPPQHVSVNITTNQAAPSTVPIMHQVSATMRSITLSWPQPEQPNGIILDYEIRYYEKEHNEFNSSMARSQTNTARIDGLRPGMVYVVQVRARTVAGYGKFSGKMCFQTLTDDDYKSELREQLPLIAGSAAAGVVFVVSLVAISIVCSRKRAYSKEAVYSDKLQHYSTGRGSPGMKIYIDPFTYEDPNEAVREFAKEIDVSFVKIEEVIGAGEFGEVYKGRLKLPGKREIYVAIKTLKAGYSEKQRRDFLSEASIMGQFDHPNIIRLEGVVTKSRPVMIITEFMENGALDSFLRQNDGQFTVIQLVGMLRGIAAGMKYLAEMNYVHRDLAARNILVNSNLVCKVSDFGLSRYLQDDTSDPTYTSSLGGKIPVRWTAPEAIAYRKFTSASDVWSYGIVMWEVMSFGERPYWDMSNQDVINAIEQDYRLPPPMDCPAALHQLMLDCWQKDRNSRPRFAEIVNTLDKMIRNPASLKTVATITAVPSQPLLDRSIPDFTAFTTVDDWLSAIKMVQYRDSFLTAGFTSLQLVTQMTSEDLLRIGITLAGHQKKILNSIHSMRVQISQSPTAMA
Chain of MERTK (Q12866 whole entry, looked up): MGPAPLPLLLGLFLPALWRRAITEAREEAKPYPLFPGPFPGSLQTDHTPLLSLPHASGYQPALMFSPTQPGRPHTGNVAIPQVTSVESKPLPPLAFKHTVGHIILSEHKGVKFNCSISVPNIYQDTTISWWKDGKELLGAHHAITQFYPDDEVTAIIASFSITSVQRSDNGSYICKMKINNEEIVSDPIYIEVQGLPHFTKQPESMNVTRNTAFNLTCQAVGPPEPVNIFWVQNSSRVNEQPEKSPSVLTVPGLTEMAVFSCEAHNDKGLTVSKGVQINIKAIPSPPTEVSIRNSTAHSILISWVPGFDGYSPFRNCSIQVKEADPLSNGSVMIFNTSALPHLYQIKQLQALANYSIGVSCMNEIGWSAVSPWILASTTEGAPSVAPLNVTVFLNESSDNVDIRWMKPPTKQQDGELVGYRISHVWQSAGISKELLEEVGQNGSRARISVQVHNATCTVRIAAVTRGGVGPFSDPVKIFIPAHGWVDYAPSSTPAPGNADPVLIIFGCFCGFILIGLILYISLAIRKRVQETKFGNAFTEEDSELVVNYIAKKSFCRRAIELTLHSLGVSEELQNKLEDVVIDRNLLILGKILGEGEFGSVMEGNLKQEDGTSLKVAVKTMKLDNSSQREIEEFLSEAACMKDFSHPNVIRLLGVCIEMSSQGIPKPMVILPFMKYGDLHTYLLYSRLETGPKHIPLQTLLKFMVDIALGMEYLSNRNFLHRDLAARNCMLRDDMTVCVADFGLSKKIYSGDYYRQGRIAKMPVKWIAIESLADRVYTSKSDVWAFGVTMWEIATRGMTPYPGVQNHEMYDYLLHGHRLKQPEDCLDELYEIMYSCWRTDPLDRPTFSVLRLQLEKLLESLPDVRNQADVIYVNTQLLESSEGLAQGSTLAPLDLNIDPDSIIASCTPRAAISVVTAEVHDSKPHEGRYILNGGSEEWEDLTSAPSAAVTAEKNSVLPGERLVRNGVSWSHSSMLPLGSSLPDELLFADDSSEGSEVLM

Row | SH2 binding enrichment [14] | SH2 binding enrichment [15] | SH2 binding enrichment [16] | Sequence | phosphorylation enrichment [1] | phosphorylation enrichment [2] | phosphorylation enrichment [3] | phosphorylation enrichment [4] | phosphorylation enrichment [5] | phosphorylation enrichment [6] | phosphorylation enrichment [7] | phosphorylation enrichment [8] | phosphorylation enrichment [9] | phosphorylation enrichment [10] | phosphorylation enrichment [11] | phosphorylation enrichment [12] | phosphorylation enrichment [13]
1 | 0.892 | 0.861 | 0.598 | KNKNRCKNILP [PTPN11_Y279_Y279C] | 0.565 | 1.48 | 0.481 | 0.488 | 0.617 | 0.374 | 0.959 | 0.765 | 0.581 | 0.942 | 0.448 | 0.503 | 1.37
2 | 0.742 | 1.01 | 0.956 | KPPFSYNALIR [FOXG1_Y186_M191R] | 0.504 | 0.618 | 0.53 | 0.446 | 0.505 | 0.482 | 0.519 | 0.695 | 0.477 | 0.807 | 0.478 | 0.55 | 0.565
3 | 0.524 | 0.782 | 0.583 | KQVEQYMSFHK [HCN1_Y417] | 1.45 | 0.687 | 3.62 | 0.413 | 0.49 | 1.49 | 0.54 | 0.833 | 0.384 | 0.754 | 0.528 | 0.555 | 0.691
4 | 0.499 | 0.897 | 0.836 | KTDKKYLMIKE [BAG3_Y451_E455K] | 0.392 | 0.636 | 0.368 | 0.373 | 0.423 | 0.368 | 0.526 | 0.64 | 0.408 | 0.877 | 0.426 | 0.439 | 0.616
5 | 0.416 | 0.853 | 0.575 | KTTGGYAGGLS [KRT8_Y419_S417G] | 0.583 | 0.701 | 0.454 | 0.419 | 0.454 | 0.413 | 0.422 | 0.506 | 0.523 | 0.592 | 0.34 | 0.473 | 0.649
6 | 0.759 | 0.742 | 0.716 | LARDMDDKEYY [MET_Y1230_Y1230D] | 0.531 | 1.37 | 0.723 | 0.643 | 0.867 | 0.691 | 1.19 | 1.87 | 0.489 | 1.64 | 0.828 | 1.13 | 1.2

Further lines, the sequence ahead of its results:

Row | Sequence | SH2 binding enrichment [14] | SH2 binding enrichment [15] | SH2 binding enrichment [16] | phosphorylation enrichment [1] | phosphorylation enrichment [2] | phosphorylation enrichment [3] | phosphorylation enrichment [4] | phosphorylation enrichment [5] | phosphorylation enrichment [6] | phosphorylation enrichment [7] | phosphorylation enrichment [8] | phosphorylation enrichment [9] | phosphorylation enrichment [10] | phosphorylation enrichment [11] | phosphorylation enrichment [12] | phosphorylation enrichment [13]
7 | KNNDGYTDFAE [MCFD2_Y135_I136T_YF] | 5.75 | 0.869 | 0.8 | 0.449 | 0.882 | 0.529 | 0.529 | 0.559 | 0.522 | 0.732 | 0.999 | 0.42 | 1.07 | 0.578 | 0.594 | 0.731
8 | KNNSIYVLANI [VNN1_Y134_V136L] | 0.796 | 1.14 | 1.67 | 1.58 | 1.16 | 1.15 | 2.7 | 0.947 | 1.14 | 1.08 | 1.17 | 1.95 | 1.24 | 0.793 | 0.668 | 1.05
9 | KNRDVSSSDFF [USP24_Y2134_Y2134S_YF] | 0.424 | 0.882 | 0.635 | 0.399 | 0.641 | 0.425 | 0.427 | 0.365 | 0.432 | 0.539 | 0.701 | 0.436 | 0.71 | 0.444 | 0.393 | 0.583
10 | KQRSDYARELE [MYH3_Y1140] | 0.512 | 1.01 | 0.859 | 0.362 | 0.596 | 0.393 | 0.358 | 0.331 | 0.417 | 0.481 | 0.636 | 0.38 | 0.789 | 0.38 | 0.435 | 0.625
11 | KRIETYFSKNF [PLP1_Y50_L46R_YF] | 0.559 | 0.949 | 0.51 | 0.467 | 0.723 | 0.47 | 0.46 | 0.516 | 0.499 | 0.532 | 0.703 | 0.395 | 0.874 | 0.43 | 0.417 | 0.752
12 | KRISCYEASYQ [PFKFB3_Y194] | 0.667 | 0.67 | 0.582 | 0.467 | 0.749 | 0.529 | 0.494 | 0.447 | 0.452 | 0.656 | 0.896 | 0.493 | 0.947 | 0.522 | 0.484 | 0.74
13 | KRLDGYVLEGR [IGSF9_Y656] | 0.856 | 0.791 | 0.518 | 0.321 | 0.426 | 0.447 | 0.323 | 0.43 | 0.441 | 0.44 | 0.585 | 0.385 | 0.67 | 0.356 | 0.417 | 0.496
14 | KSSDVYVSYDC [SORL1_Y136_Y141C] | 0.766 | 0.959 | 0.583 | 3.82 | 0.934 | 1.87 | 0.663 | 1.52 | 4.79 | 1.35 | 1.22 | 0.611 | 1.13 | 0.866 | 0.993 | 0.772
15 | KTDVRYRSLGG [DYSF_Y1858_H1857R] | 0.383 | 0.898 | 0.634 | 0.368 | 0.553 | 0.314 | 0.414 | 0.372 | 0.35 | 0.472 | 0.446 | 0.346 | 0.472 | 0.333 | 0.312 | 0.473
16 | KVDKEYEVRVR [GHR_Y226] | 0.589 | 1.05 | 1.06 | 0.41 | 0.587 | 0.488 | 0.396 | 0.52 | 0.407 | 0.473 | 0.711 | 0.361 | 0.864 | 0.459 | 0.547 | 0.579
17 | KVPELYEIHKE [BCR_Y554] | 0.701 | 0.996 | 0.751 | 0.603 | 0.766 | 0.853 | 0.976 | 0.593 | 0.631 | 0.817 | 1.03 | 0.619 | 1.08 | 0.93 | 0.868 | 0.714
